Data taken from publication PMC2447818.

Molecular target: GFP-VIM (lens vimentin fused to green fluorescence protein) (UniProt P08670)
Experiment: FRET or BRET; FRET acceptor photobleaching by confocal laser scanning microscopy in living HeLa cells, 48 h after co-transfection; GFP fusion as donor, RFP fusion as acceptor; RFP bleached at 543 nm for 45 s in a region of interest or a whole cell; E=1 – F(GFP-min)/F(GFP-max)

GFP-VIM (lens vimentin fused to green fluorescence protein), sequence (P08670 2-466): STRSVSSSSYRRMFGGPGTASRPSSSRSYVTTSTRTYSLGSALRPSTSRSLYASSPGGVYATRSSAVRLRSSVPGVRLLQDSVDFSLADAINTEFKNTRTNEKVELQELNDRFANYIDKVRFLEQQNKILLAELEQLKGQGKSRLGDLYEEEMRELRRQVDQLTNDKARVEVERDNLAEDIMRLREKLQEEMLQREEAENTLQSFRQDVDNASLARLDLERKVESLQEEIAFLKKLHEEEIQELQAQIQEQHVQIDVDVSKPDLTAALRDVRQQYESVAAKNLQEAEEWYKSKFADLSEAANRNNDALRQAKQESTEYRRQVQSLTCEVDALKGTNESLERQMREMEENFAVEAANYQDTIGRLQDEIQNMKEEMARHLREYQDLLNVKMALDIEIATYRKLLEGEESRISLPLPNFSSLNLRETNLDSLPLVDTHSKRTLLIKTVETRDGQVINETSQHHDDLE
RFP-αB (wild-type αB-crystallin fused to red fluorescence protein), sequence (P02511 whole entry, the tested form may be a part): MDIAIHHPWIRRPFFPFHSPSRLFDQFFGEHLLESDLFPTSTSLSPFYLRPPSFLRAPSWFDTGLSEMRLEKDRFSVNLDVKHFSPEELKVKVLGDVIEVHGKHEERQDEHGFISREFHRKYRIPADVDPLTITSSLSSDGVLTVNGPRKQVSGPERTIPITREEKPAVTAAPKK

With “RFP-αB (wild-type αB-crystallin fused to red fluorescence protein) (from UniProt P02511 1-175) (natural protein)” the FRET efficiency (one representative cell) was 9.5%.
